According to patent publication US7838288B2, “Modulators of odorant receptors” (Duke University, priority 2004, dated 2010):

Tests used:
[1] = target: T1, mouse odorant receptor OREG (Mus musculus, UniProt Q920P2); test: CRE-luciferase reporter gene assay, OREG; format: cell-based; conditions: 293T cells; compared to OR alone or control pCI
T1 construct: expressed in transfected cells; host or cells: 293T cells (with or without co-transfected REEP1/RTP1/RTP2) and Hana3A cells (293T stably expressing mouse REEP1, RTP1, RTP2, Galpha-olf)
T1 sequence (Q920P2 1-313): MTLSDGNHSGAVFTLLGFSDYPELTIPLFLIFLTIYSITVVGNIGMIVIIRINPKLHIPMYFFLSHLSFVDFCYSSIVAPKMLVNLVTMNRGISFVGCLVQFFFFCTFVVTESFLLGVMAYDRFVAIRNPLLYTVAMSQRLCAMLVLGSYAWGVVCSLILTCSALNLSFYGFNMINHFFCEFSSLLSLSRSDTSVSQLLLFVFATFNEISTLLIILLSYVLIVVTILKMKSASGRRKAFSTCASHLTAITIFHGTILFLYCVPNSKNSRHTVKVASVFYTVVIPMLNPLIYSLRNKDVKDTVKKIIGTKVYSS
In short: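 293T-derived cells stably expressing REEP1, RTP1, RTP2 and Gαolf, transfected with OREG, CRE-luciferase and SV40-Renilla control. Odorant applied in CD293 medium for 10 h or 4 h at 37 degrees C. Output is firefly luminescence minus no-odorant value, normalized to Renilla.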

[2] = tested on: olfr62; test: Living-cell staining of cell-surface olfr62; format: cell-based, mouse; conditions: accessory protein co-transfected in 293T cells
Procedure: The proteins encoded by these clones were named REEP1, for Receptor Expression Enhancing Protein 1 and RTP1, for Receptor Transporting Protein 1. Subsequently, RTP2 was found, a close relative of RTP1. […] Next, REEP1, RTP1, and RTP2 were tested to detect a similar effect in promoting cell-surface expression of other ORs. Four different ORs (mouse OREG, mouse olfr62, mouse OR-S46 and rat I7) were expressed in 293T cells with or without REEP1, RTP1, or RTP2. […] Additionally, ORs transfected with REEP and/or RTP generated more immunofluorescent cells and stronger signals in positive cells compared with ORs without REEP and/or RTP (see FIG. 2A). The signal intensity and the number of immunopositive cells varied when using different ORs at each condition. […] Nonetheless, occasional immunopositive cells were observed only when the accessory proteins were co-expressed. The effects of RTP1 or RTP2 were consistently more robust than that of REEP1. The enhancement of cell-surface expression was specific for ORs and not for other GPCRs: neither REEP and/or RTP enhanced expression of the β2 adrenergic receptor, mT2R5 (a mouse bitter taste receptor) (see, e.g., Chandrashekar, J., et al. (2000) Cell 100, 703-711; herein incorporated by reference in its entirety), or a V2R pheromone receptor (VR4) (see, e.g., Matsunami, H., and Buck, L. B. (1997) Cell 90, 775-784; herein incorporated by reference in its entirety) (see FIG. 2A and FIG. 3). Finally, enhancement of cell-surface expression of MOR203-1 was not observed when other members of the REEP and RTP families (REEP2 and RTP4) were co-expressed.
293T cells were maintained in minimal essential medium containing 10% fetal bovine serum (M10). Lipofectamine 2000 (Invitrogen) was used for transfection. In live-cell staining, 16 hours after transfection, cells were incubated in M10 containing anti rhodopsin antibody, 4D2 (see, e.g., Laird, D. W., and Molday, R. S. (1988) Invest Opthalmol V is Sci 29, 419-428; herein incorporated by reference in its entirety) and 15 mM NaN3 at 4 degrees C. for 1 hour. After washing, cells were incubated with Cy3-conjugated anti mouse IgG (Jackson Immunologicals), washed and mounted. For FACS analysis, 4D2 and PE-conjugated anti mouse IgG (Jackson Immunologicals) were used to monitor the Rho tagged receptor expression. Anti HA rabbit antibodies (Sigma) and Alexa 488 conjugated anti rabbit IgG (Molecular Probes) was used to stain the HA-β2 adrenergic receptor. To establish the Hana3a cells, 1 ug/ml of puromycin was used for selection. 96 colonies were picked and assayed using luciferase assay using OREG.

OREG activity by luciferase, accessory protein co-expressed [1]: Increased enhancement
B1: RTP1-A1: RTP1 variant from deleting portions of RTP1-A; murine SEQ ID NO: 46, human SEQ ID NO: 47 (protein, listed as Mus musculus)
chain: MCKSVTTGEWKKVFYEKMEEVKPADSWDFIIDPNLKHNVLAPGWKQYLELHASGRFHCSWCWHTWQSPHVVILFHMYLDKAQRAGSVRMRVFKQLCYECGTARLDESSMLEENIESLVDNLITSLREQCYGERGGHYRIHVASRQDNRRHRGEFCEACQEGIVHWKPSEKLLEEEATTYTFSRAPSPTKPQAETGSGCNFCSIPWCLFWATVLMLIIYLQFSFRTSV
cell-surface expression of olfr62 [2]: Increased cell-surface staining
